# Results from patent US20120269801A1.
# Key:
# [1] = molecular target: CD59 in membrane extract of lysed CD59-expressing red blood cells (UniProt P13987); test: phage ELISA, membrane extract of CD59(+) red cells coated, anti-M13-HRP; helper phage control
# [2] = molecular target: CD59 (target protein) (human) (UniProt P13987); test: phage ELISA, CD59 coated directly, anti-M13-HRP; helper phage control
substance,measurement,setting,value
M13KO7 helper phage,"OD490 (Ag+ phage+, CD59(+)red cell)",[1],0.046 OD
same,OD490 (Ag+ phage+),[2],0.046 OD
